The labels stand for the following.
B1: H4H12166P4 (antibody, human IgG4, V domains shown)
VH: QVQLQESGPGLVKPSETLSLTCTVSGDSVSSSYWTWIRQPPGKGLEWIGYIYYSGSSNYNPSLKSRATISVDTSKNQFSLKLSSVTAADTAVYYCAREGNVDTTMIFDYWGQGTLVTVSS
VL: AIQMTQSPSSLSASVGDRVTITCRASQGIRNDLGWYQQKPGKAPKLLIYAASSLQSGVPSRFAGRGSGTDFTLTISSLQPEDFATYYCLQDFNYPWHFGQGTKVEIK
notes: histidine-mutated CDR variant of H4H12166P; human IgG4 (S108P)
B2: H4H12166P6 (antibody, human IgG4, V domains shown)
VH: B1 VH with T103H
VL: B1 VL with H97T
notes: as for B1
B3: H4H12166P5 (antibody, human IgG4, V domains shown)
VH: B1 VH with F107H
VL: B1 VL with H97T
notes: as for B1
B4: H4H12166P7 (antibody, human IgG4, V domains shown)
VH: B1 VH with G99H
VL: B1 VL
notes: as for B1

Residue numbers refer to the chain shown, from its start. Names and notes keep the numbering of the source. Bounds are passed on as bounds.

One assay addresses human C5 R885H-mmh (human, UniProt P01031 19-1676). The assay is described as follows: cell-based or functional assay.
Regarding B1, the “IC50, inhibition of CDC of Daudi cells, C5 depleted human serum and 6.6 nM C5 Variant R885H, 7 nM anti-CD20 antibody” value (from here on “IC50, inhibition … 7 nM anti-CD20 antibody”) was 1.5 nM.

As for B2, the “IC50, inhibition … 7 nM anti-CD20 antibody” value was determined as 1.3 nM.

As for B3, the “IC50, inhibition … 7 nM anti-CD20 antibody” value amounted to 2.1 nM.

As for B4, the “IC50, inhibition … 7 nM anti-CD20 antibody” value stood at 4.2 nM.

Another assay addresses T1, human C5 (human, UniProt P01031 19-1676). The assay is described as follows: cell-based or functional assay.
Take B1: the “IC50, inhibition of CDC of Daudi cells, 1.66% human serum, 2 nM anti-CD20 antibody” value came out at 3.5 nM.

On to B2, for which the “IC50, inhibition of CDC of Daudi cells, 1.66% human serum, 2 nM anti-CD20 antibody” value stood at 3 nM.

Regarding B3, the “IC50, inhibition of CDC of Daudi cells, 1.66% human serum, 2 nM anti-CD20 antibody” value was 4.9 nM.

As for B4, the “IC50, inhibition of CDC of Daudi cells, 1.66% human serum, 2 nM anti-CD20 antibody” value amounted to 7.3 nM.

The target in a further assay is human C5 R885C-mmh (human, UniProt P01031 19-1676). Nature of the assay: cell-based or functional assay.
Consider B1, for which the “IC50, inhibition of CDC of Daudi cells, C5 depleted human serum and 6.6 nM C5 Variant R885C, 30 nM anti-CD20 antibody” value (“IC50, inhibition … 30 nM anti-CD20 antibody” below) came out at 0.96 nM.

For B2, the “IC50, inhibition … 30 nM anti-CD20 antibody” value was 0.79 nM.

B3: the “IC50, inhibition … 30 nM anti-CD20 antibody” value worked out at 1.4 nM.

On to B4, for which the “IC50, inhibition … 30 nM anti-CD20 antibody” value was determined as 2.3 nM.

A further assay has as its target African green monkey C5 (African green monkey). Nature of the assay: cell-based or functional assay.
Turning to B1, the “IC50, inhibition of CDC of Daudi cells, 1.66% African Green monkey serum, 10 nM anti-CD20 antibody” value was determined as 7.9 nM.

B2: the “IC50, inhibition of CDC of Daudi cells, 1.66% African Green monkey serum, 10 nM anti-CD20 antibody” value came out at 9.9 nM.

In the case of B3, the “IC50, inhibition of CDC of Daudi cells, 1.66% African Green monkey serum, 10 nM anti-CD20 antibody” value was above 30 nM and the “Max % Inhibition of CDC of Daudi cells, 1.66% African Green monkey serum, 10 nM anti-CD20 antibody” value was 75%.

As for B4, the “IC50, inhibition of CDC of Daudi cells, 1.66% African Green monkey serum, 10 nM anti-CD20 antibody” value is above 60 nM and the “Max % Inhibition of CDC of Daudi cells, 1.66% African Green monkey serum, 10 nM anti-CD20 antibody” value is 61%.

A further assay deals with T1, human C5. Nature of the assay: SPR (Biacore), mAb captured, dissociation of human C5 at pH7.4 vs pH6.0, 37°C. Summed up:
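Anti-C5 mAbs (human IgG4 Fc) captured on an amine-coupled mouse anti-human Fc surface; recombinant C5 dissociation followed by Biacore T200 in PBS-T (0.01M phosphate, 0.15M NaCl, 0.05% Tween-20) at pH7.4 or pH6.0. Dissociative half-life (t½) calculated from kd.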
(In general: SPR reads the build-up and loss of mass on a sensor chip optically.)
On to B1, for which the “t½ Ratio pH7.4/pH6.0” value was found to be 7.6.

Regarding B2, the “t½ Ratio pH7.4/pH6.0” value turned out to be 8.2.

As to B3, the “t½ Ratio pH7.4/pH6.0” value was found to be 7.6.

Consider B4, for which the “t½ Ratio pH7.4/pH6.0” value came to 21.

In another assay the target is T1, human C5. The assay is described as follows: cell-based or functional assay. The source holds these as a separate data set.
Take B1: the “Human AP % Max Inhibition, hemolysis assay, 5% NHS” value (“Human AP % Max Inhibition” below) was determined as 77%; the “Human AP IC50, hemolysis assay, 5% NHS” value is 31.7 nM; the “Human CP % Max Inhibition, hemolysis assay, 5% NHS” value (“Human CP % Max Inhibition” for short) amounted to 98.6%; the “Human CP IC50, hemolysis assay, 5% NHS” value is 13.2 nM.

Regarding B2, the “Human AP % Max Inhibition” value stood at 82.4%; the “Human AP IC50, hemolysis assay, 5% NHS” value came to 28.4 nM; the “Human CP % Max Inhibition” value came out at 98.1%; the “Human CP IC50, hemolysis assay, 5% NHS” value stood at 10.3 nM.

For B3, the “Human AP % Max Inhibition” value worked out at 77.7%; the “Human AP IC50, hemolysis assay, 5% NHS” value was 65.5 nM; the “Human CP % Max Inhibition” value amounted to 97.1%; the “Human CP IC50, hemolysis assay, 5% NHS” value came to 14.9 nM.

Take B4: the “Human AP % Max Inhibition” value amounted to 83.2%; the “Human AP IC50, hemolysis assay, 5% NHS” value stood at 156 nM; the “Human CP % Max Inhibition” value turned out to be 93.7%; the “Human CP IC50, hemolysis assay, 5% NHS” value stood at 24.3 nM.

These data come from patent US20170355757A1 (Regeneron, published 2017).
